Data set [1] concerns the target T1, PpERF17 (Prunus persica (peach), cv. …, UniProt M5W9J0 1-215).
T1 sequence: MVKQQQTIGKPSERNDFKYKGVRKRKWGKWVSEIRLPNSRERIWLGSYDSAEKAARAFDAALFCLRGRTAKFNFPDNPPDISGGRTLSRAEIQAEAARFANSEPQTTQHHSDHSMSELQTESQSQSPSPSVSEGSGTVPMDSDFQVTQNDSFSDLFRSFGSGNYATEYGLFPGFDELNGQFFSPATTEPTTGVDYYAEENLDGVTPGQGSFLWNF
Put plainly: EMSA; cold probe 50x/500x competes; Chemiluminescent EMSA Kit (Beyotime); buffer, salt, pH and temperature not stated. The settings on record: protein: recombinant; tags: GST (N-terminal, pGEX-4T-1); label: biotin; blunt. On the technique in general: A gel shift assay detects complexes by their altered migration in electrophoresis.

Data set [2] has as its target T1, PpERF17. Put plainly: EMSA; Chemiluminescent EMSA Kit (Beyotime); buffer, salt, pH and temperature not stated. The settings on record: protein: recombinant, tags: GST (N-terminal, pGEX-4T-1), label: biotin.

This is an account of results in publication PMC11908827, “PpERF17 alleviates peach fruit postharvest chilling injury under elevated CO2 by activating jasmonic acid and γ-aminobutyric acid biosynthesis”.

B1: PpERF17-PpOPR3 probe (dsDNA)
DNA 1: TAGAAACCAAAACGACACCGGCCATAAATAAATCCGC
DNA 2: GCGGATTTATTTATGGCCGGTGTCGTTTTGGTTTCTA
Regarding B1, the binding result with PpERF17 [1] is given as “binds”.

B2: PpERF17-PpGAD probe (dsDNA)
DNA 1: CATAAGGTCGGAAGGCACCGTCCATGTTCCAACTTGG
DNA 2: CCAAGTTGGAACATGGACGGTGCCTTCCGACCTTATG
Turning to B2, the binding result in the data set with PpERF17 [1] is “binds”.

B3: PpERF17-PpAOS probe (dsDNA)
DNA 1: ATGGTTCATGTACCCCACCGTCTTCACACTCACCTTC
DNA 2: GAAGGTGAGTGTGAAGACGGTGGGGTACATGAACCAT
Regarding B3, the binding result with PpERF17 [1] is “binds”.

B4: PpERF17-Pp13S-LOX mutant probe (dsDNA)
DNA 1: TCTTAAAAACGTGAAAAAAAAAAGATCAACAGTACCC
DNA 2: GGGTACTGTTGATCTTTTTTTTTTCACGTTTTTAAGA
As for B4, in the data set with PpERF17 [2] (blunt), the binding result is on record as “no binding”.

B5: PpERF17-Pp13S-LOX probe (dsDNA)
DNA 1: TCTTAAAAACGTGTGGACGGTGAGATCAACAGTACCC
DNA 2: GGGTACTGTTGATCTCACCGTCCACACGTTTTTAAGA
Consider B5, for which the binding result with PpERF17 [1] was “binds”.

B6: PpERF17-PpAOS mutant probe (dsDNA)
DNA 1: ATGGTTCATGTACCCTTTTTTTTTCACACTCACCTTC
DNA 2: GAAGGTGAGTGTGAAAAAAAAAGGGTACATGAACCAT
Consider B6, for which the binding result with PpERF17 [2] (blunt) was “no binding”.

B7: PpERF17-PpOPR3 mutant probe (dsDNA)
DNA 1: TAGAAACCAAAACGATTTTTTTTTTAAATAAATCCGC
DNA 2: GCGGATTTATTTAAAAAAAAAATCGTTTTGGTTTCTA
Regarding B7, the binding result with PpERF17 [2] (blunt) was “no binding”.

B8: PpERF17-PpGAD mutant probe (dsDNA)
DNA 1: CATAAAAAAAAAAGGTTTTTTTTTGTTCCAACTTGG
DNA 2: CCAAGTTGGAACAAAAAAAAAACCTTTTTTTTTATG
Consider B8, for which the binding result with PpERF17 [2] was “no binding”.
